In US20260015417A1 (MEDIMABBIO, published 2026):

Target: T1, recombinant human TIGIT protein (Acrobiosystems) (human, UniProt Q495A1 22-141)
T1 construct: Bought recombinant protein; NP_776160.2; UniProt Q495A1-1
T1 sequence: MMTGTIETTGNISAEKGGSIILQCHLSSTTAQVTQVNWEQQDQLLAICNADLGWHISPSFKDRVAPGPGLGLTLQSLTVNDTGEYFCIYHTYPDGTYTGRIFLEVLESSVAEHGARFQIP
Experiment: ELISA, plate coated with recombinant human TIGIT at 1 ug/ml, serial 1:3 dilutions from 61.097 nM, detection with anti-mouse/human IgG-HRP, OD 450 nm
Procedure: An ELISA plate was coated with recombinant human TIGIT protein (Acrobiosystems, China) at a concentration of 1 μg/ml dissolved in PBS (Phosphate-Buffered Saline) and incubated overnight at 4° C. The plate was blocked with blocking buffer (3% (v/v) skim milk in PBS) for 1 hour, and serially diluted anti-TIGIT monoclonal antibody (7A6) and the fusion protein ([7A6]-[TL-2]-[IL-15]; denoted as ‘7A615TL-2’) (starting concentration: 61.097 nM; serial 1:3 dilutions) were added to the coated plate. After incubation, anti-mouse/human IgG-HRP antibody (Abcam: 1:10000 dilution) was added to each well. The plate was developed with TMB solution and stopped with 1N HCl. The OD value was read at 450 nm using the GloMax® Explorer Fully Loaded.

B1: anti-TIGIT monoclonal antibody 7A6 (7A6_VH3/Vk5) (antibody, human IgG1, kappa, V domains shown)
VH: QVQLQESGPGLVKPSQTLSLTCTVTGYSITSDYAWNWIRQPPGKGLEWMGYISYSGSARYNPSLKSRVTISRDTSKNQFSLKLSSVTAEDTATYYCARKGYPAYFAYWGQGTLVTVSS
VL: DIQMTQSPSSLSASVGDRVSITCKASQDVSTAVAWYQQKPGQAPRLLIYSASYRYTGVPDRFSGSGSGTDFTLTISSLQPEDFATYYCQHHYSTPYTFGQGTKLEIKR
notes: also called parent antibody; TIGIT mAb
EC50 (read off the curve): ~2 nM
